B1: chAb05 (antibody, V domains shown)
VH: DVKLVESGEDLVKPGGSLKLSCAASGFTFSNYAMSWVRQTPEKRLEWVAYVSSGGDYIYYADTVKGRFIISRDNARNTLYLQMNSLRSEDTAMYYCARVYFGNSLDYWGQGTTLTVSS
VL: DIVMTQSPSSLTVTAGEKVTLSCKSSQSLLNGGNQKNYLTWYQQRPGQPPKLLIYWASTRESGVPDRFTGSGSGTDFTLIISSVQAEDLAVYYCQNDYYYPWTFGGGTKLEIK
B2: chAb20 (antibody, V domains shown)
VH: EVMLVESGGGLVKPGGSLKLSCVASGFTFSSYTMSWVRQTPEKRLEWVATIIGGYGNTYYSDSVKGRITISRDSAKNTLYLQMISLRSEDTALYYCTRLGQTQRNAMDYWGQGTSVTVSS
VL: DILMTQSPSSLSVSAGEKVTMNCKSSQSLLNSGNQKNYLAWYQQKPGQPPKLLIYGASTRESGVPDRFTGSGSGTDFTLTISSVQAEDLAVYYCQNDYYYPFTFGAGTKLEL
B3: chAb17 (antibody, V domains shown)
VH: QVQLKESGPGLVAPSQSLSITCTVSGFSLTSYAISWVRQPPGKGLEWLGEIWTGGGTNYNSALKSRLSISKDNSKSQVFLKMNSLQTDDTARYYCGRLSYGNSLDYWGQGTTLTVSS
VL: DIVMTQSPSSLTVTAGEKVTMSCKSSQSLLNSGNQKNYLTWYQQKPGQPPKLLIYWASTRESGVPDRFTGSGSGTDFTLTVSSVQAEDLAVYYCQNNFIYPLTFGPGTKLELK
B4: chAb10 (antibody, V domains shown)
VH: B2 VH with V23A, I52S, G53V, G54I, Y55G, S61V, I68F, S74K, I84S, T97A
VL: B3 VL with T12S, T14S, T40A, W56G, V81I, N97D, F98Y, I99S, P106A
B5: chAb15 (antibody, V domains shown)
VH: EVMLVESGGDLVKPGGSLKLSCAASGFTFSTYTMSWVRQTPEKRLEWVATIVGGGGYTYYLDSVKGRFTISRDNAKNTLYLQMISLRSEDTALYYCARMGLTQRNALDYWGQGTSITVSS
VL: DIVMTQSPSSLSVSEGEKVTLNCKSSQSLFNSGNQKNYLAWYQQKPGQPPKLLIYGASTRESGVPDRFTGSGFGTDFTLTISSVQAEDLAVYYCQNDHTYPLTFGAGAKLELK
B6: Ab10 (antibody, V domains shown)
VH: B2 VH with V23A, I52S, G53V, G54I, Y55G, S61V, I68F, S74K, I84S, T97A
VL: B5 VL with E15A, L21M, N22S, F30L, F73S, H98Y, T99S, A108T
notes: mouse monoclonal (hybridoma)

Where a chain is given by its changes, count along the chain named.

The first assay concerns the target T1, human Claudin18.2 (CLDN18.2) (human, UniProt P56856 1-261). Nature of the assay: cell-based or functional assay.
As to B1, the “ADCC EC50” value was 5.92 nM and the “Max tumor cell killing (% of control), ADCC” value is 57.9 % of control.

Consider B2, for which the “ADCC EC50” value turned out to be 4.14 nM and the “Max tumor cell killing (% of control), ADCC” value was 62.9 % of control.

B3: the “ADCC EC50” value came out at 2.46 nM and the “Max tumor cell killing (% of control), ADCC” value is 60.6 % of control.

For the molecule B4, the “ADCC EC50” value was determined as 1.68 nM and the “Max tumor cell killing (% of control), ADCC” value was 55.2 % of control.

B5: the “ADCC EC50” value stood at 2.65 nM and the “Max tumor cell killing (% of control), ADCC” value was 36.5 % of control.

A further assay addresses T1, human Claudin18.2 (CLDN18.2). Kind of assay: cell-based or functional assay. The source holds these as a separate data set.
In the case of B1, the “CDC EC50” value was 17.8 nM and the “Max CDC induced tumor cell killing (% of control)” value is 78.9 % of control.

For the molecule B2, the “CDC EC50” value amounted to 8.82 nM and the “Max CDC induced tumor cell killing (% of control)” value is 73 % of control.

For the molecule B3, the “CDC EC50” value was 9.93 nM and the “Max CDC induced tumor cell killing (% of control)” value is 70.8 % of control.

As to B4, the “CDC EC50” value was 2.69 nM and the “Max CDC induced tumor cell killing (% of control)” value was 82.7 % of control.

B5: the “CDC EC50” value came out at 8.15 nM and the “Max CDC induced tumor cell killing (% of control)” value was 77.4 % of control.

The target is the same in another assay. Kind of assay: FACS on GAXC031 cells.
In the case of B1, the EC50 (in general, the concentration needed to bring the measured effect to its halfway point) came out at 73.8 nM.

The molecule B2 gave a half-maximal effective concentration (EC50) of 42.9 nM.

On to B3, for which the midpoint of the response, the EC50, lay at 94.2 nM.

B4 gave a half-maximal effective concentration (EC50) of 29.2 nM. Against the preceding molecule, the EC50 is about 3.2-fold lower.

B5 came in with an EC50 of 31.9 nM.

The next assay has the same target. Kind of assay: FACS on CHOK1-18.2 cells, antibody at 50 µg/ml.
Consider B1, for which the “MAX MFI” value was found to be 83900.

For the molecule B2, the “MAX MFI” value worked out at 65700.

For the molecule B3, the “MAX MFI” value was 83800.

Regarding B4, the “MAX MFI” value came to 80400.

Turning to B5, the “MAX MFI” value worked out at 94000.

For another assay the target is unchanged. Nature of the assay: FACS on CHOK1-18.2 cells.
Description: (§1) The specificity and cross-reactivity of these subclones were confirmed with FACs analysis. […] Fluorescent dye-conjugated secondary antibody was used to detect the binding of the primary antibody with the cells. Median fluorescence intensity (MFI) was measured by FACs analysis.
Consider B6, for which the “FACS MFI” value came to 8400.

For a further assay the target is unchanged. Kind of assay: cell-based or functional assay. This is another data set of the same source.
For B1, the “IC50 of indirect ADC cytotoxicity” value came to 0.99 nM and the Max inhibition % stood at 92.3%.

Regarding B2, the “IC50 of indirect ADC cytotoxicity” value worked out at 0.47 nM and the Max inhibition % worked out at 92.8%.

Turning to B3, the “IC50 of indirect ADC cytotoxicity” value turned out to be 0.88 nM and the Max inhibition % was 92.4%.

With B4, the “IC50 of indirect ADC cytotoxicity” value was determined as 0.24 nM and the Max inhibition % turned out to be 92.8%.

On to B5, for which the “IC50 of indirect ADC cytotoxicity” value is 0.38 nM and the Max inhibition % turned out to be 92.4%.

A further assay concerns the target T2, human Claudin18.1 (CLDN18.1) (human, UniProt P56856 1-261).
T2 construct: whole, on cells; also called human Claudine18.1
Nature of the assay: FACS on CHOK1-18.1 cells.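 Note: test antibody binding to the cells detected by flow cytometry using a fluorescent dye-labelled secondary antibody, read out as median fluorescence intensity.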
Description: as §1
As to B6, the “FACS MFI” value was 80.8.

A further assay concerns the target T1, human Claudin18.2 (CLDN18.2). Kind of assay: FACS on GAXC031 cells, antibody at 50 µg/ml.
In the case of B1, the “MAX MFI” value turned out to be 4600.

In the case of B2, the “MAX MFI” value stood at 6260.

Take B3: the “MAX MFI” value came out at 4230.

For the molecule B4, the “MAX MFI” value came to 6940.

As to B5, the “MAX MFI” value came to 6110.

The next assay shares this target. Nature of the assay: FACS on CHOK1-18.2 cells. This is another data set of the same source.
Take B1: the EC50 is 5 nM.

Take B2: the EC50 was 3.88 nM.

Turning to B3, the EC50 was found to be 4.74 nM.

In turn, B4 showed an EC50 of 2.27 nM.

Turning to B5, the EC50 is 4.64 nM.

In the next assay the target is T2, human Claudin18.1 (CLDN18.1). Kind of assay: FACS (FIGS. 1A and 1B).
Turning to B6, the binding result is “no binding”.
